# Read-outs that look alike come from different tables or passages of the source.
# Experiments:
# [1] = target: SARS-CoV-2 RBD (SARS-CoV-2); assay: sVNT, cPass kit with SARS-CoV-2 RBD-HRP; note: test concentration or dose not given here
# [2] = target: SARS-CoV-1 RBD (SARS-CoV); assay: ELISA, 100 ng coated RBD, anti-human IgG-HRP; note: unit not given here
# [3] = target: SARS-CoV-2 RBD (SARS-CoV-2); assay: ELISA, 100 ng coated RBD, anti-human IgG-HRP; note: unit not given here
# [4] = target: SARS-CoV-1 RBD (SARS-CoV); assay: sVNT, cPass kit format with SARS-CoV-1 RBD-HRP; note: test concentration or dose not given here
# [5] = target: SARS-CoV-2 Lambda (SARS-CoV-2 Lambda)
# SARS-CoV-1 [6] = target: SARS-CoV-1
# SARS-CoV-2 Gamma [7] = target: SARS-CoV-2 Gamma
# [8] = target: Bat CoV RsSHC014 (SC1r-CoV RsSHC014)
# [9] = target: Bat CoV WIV-1 (SC1r-CoV WIV-1)
# Bat CoV BANAL-52 [10] = target: Bat CoV BANAL-52
# [11] = target: Bat CoV Rs2018B (SC1r-CoV Rs2018B)
# SARS-CoV-2 Mu [12] = target: SARS-CoV-2 Mu
# SARS-CoV-2 Gamma [13] = target: SARS-CoV-2 Gamma; remark: listed apart in the source
# [14] = target: SARS-CoV-2 Lambda (SARS-CoV-2 Lambda); remark: listed apart in the source
# Bat CoV BANAL-52 [15] = target: Bat CoV BANAL-52; remark: listed apart in the source
# SARS-CoV-2 Mu [16] = target: SARS-CoV-2 Mu; remark: listed apart in the source
# SARS-CoV-1 [17] = target: SARS-CoV-1; remark: listed apart in the source
substance,measurement,setting,value
CR3022 (antibody),sVNT SARS-CoV-2 (% I),[1],24.2%
same,Binding SARS-CoV-1,[2],1.19
same,Binding SARS-CoV-2,[3],1.46
same,sVNT SARS-CoV-1 (% I),[4],32.5%
"S309 (Sotrovimab, GSK) (antibody)",sVNT SARS-CoV-2 (% I),[1],39.6%
same,Binding SARS-CoV-1,[2],1.22
same,Binding SARS-CoV-2,[3],1.55
same,sVNT SARS-CoV-1 (% I),[4],36.5%
S2X259,IC50,[5],0.047 µg/mL
same,IC50,SARS-CoV-1 [6],0.871 µg/mL
same,IC50,SARS-CoV-2 Gamma [7],0.102 µg/mL
same,IC50,[8],0.133 µg/mL
same,IC50,Pangolin CoV GD-1,0.112 µg/mL
same,IC50,[9],0.117 µg/mL
same,IC50,Bat CoV LYRa11,0.073 µg/mL
same,IC50,Bat CoV BANAL-52 [10],0.097 µg/mL
same,IC50,[11],0.142 µg/mL
same,IC50,SARS-CoV-2 Mu [12],0.067 µg/mL
S309,IC50,SARS-CoV-2 Gamma [13],0.172 µg/mL
same,IC50,SARS-CoV-2 Delta,0.199 µg/mL
same,IC50,SARS-CoV-2 Delta Plus,0.24 µg/mL
S2X259 (VirBiotech) (antibody),sVNT SARS-CoV-2 (% I),[1],94%
same,Binding SARS-CoV-1,[2],0.973
same,Binding SARS-CoV-2,[3],1.73
same,sVNT SARS-CoV-1 (% I),[4],92.8%
LyCoV-1404,IC50,[14],0.077 µg/mL
same,IC50,Bat CoV BANAL-52 [15],0.12 µg/mL
same,IC50,SARS-CoV-2 Mu [16],0.067 µg/mL
CR3022,IC50,SARS-CoV-1 [17],0.397 µg/mL
LyCoV-1404 (Eli Lily) (antibody),sVNT SARS-CoV-2 (% I),[1],0.144%
same,Binding SARS-CoV-1,[2],1.54
same,Binding SARS-CoV-2,[3],0.445
same,sVNT SARS-CoV-1 (% I),[4],94.5%
